According to patent EP4233917A1, “ANTI-INFECTIVE CONJUGATE FOR USE IN THE TREATMENT OF ZIKA VIRUS INFECTION” (Universitat Pompeu Fabra, priority 2022, dated 2023):
Like-named read-outs stand apart in the source and are kept apart here. Ends that are not written are not given here. Peptide text beside a SMILES is read from it. * marks the point of attachment. X1 = C=CC1=C(C)c2cc3[nH]c(cc4nc(cc5[nH]c(cc1n2)c(C)c5CCC(=O)*)C(CCC(=O)O)=C4C)c(C)c3C=C; X3 = C=CC1=C(C)c2cc3[nH]c(cc4nc(cc5[nH]c(cc1n2)c(C)c5CCC(=O)O)C(CCC(=O)*)=C4C)c(C)c3C=C; X2 = CCC1=C(C)c2cc3[nH]c(cc4nc(cc5[nH]c(cc1n2)c(C)c5CCC(=O)O)C(CCC(=O)*)=C4C)c(C)c3CC; X4 = CCC1=C(C)c2cc3[nH]c(cc4nc(cc5[nH]c(cc1n2)c(C)c5CCC(=O)*)C(CCC(=O)O)=C4C)c(C)c3CC

Tests used:
JEG-3 cells [1] = conditions: JEG-3, concentrations of up to 50 µM, 24 h
Experimental: (§2) HBEC-5i cells and JEG-3 cells were plated in attachment factor protein and rat-tail collagen, respectively, pre-coated 96-well flat bottom clear, black polystyrene plate (Corning, New York, USA). Afterwards cells were cultured in complete medium at 37 °C in a 5% CO2 atmosphere, with medium replaced every 2 days. When the cellular monolayer was formed, cells were treated with various concentrations of conjugates in the 6.25-50 µM range, for 24 h at 37 °C in a 5% CO2 atmosphere. Viability was evaluated by the CellTiter-Blue® assay (Promega, WI, USA), based on resazurin reduction into highly fluorescent resorufin by metabolically active cells. By distinguishing metabolic from non-metabolic cells, cytotoxicity can be indirectly determined. After incubation, cells were washed with PBS, pH 7.4, and 15 µL of CellTiterBlue® reagent in 100 µL of complete medium was added to the cells and incubated for 1.5 h at 37 °C in 5% CO2. Fluorescence (λex=560 nm, λem=590 nm), was measured in a Varioskan Lux plate reader. Complete medium and medium containing 0.25% Triton X-100 were used as positive and negative controls (100 and 0% viability), respectively. Cell viability (%) was determined as: Cell viability(%) = (F_treated−F_blank)/(F_(nontreated)−F_blank) × 100 [formula] where Ftreated is the fluorescence intensity of cells treated with a conjugate, Fnon treated is the fluorescence of untreated cells and Fblank is the fluorescence of CellTiterBlue® reagent in complete medium without cells.

HBEC-5i cells [2] = conditions: 10 µM on apical side, 24 h incubation; percentage of compound in the basolateral side
Experimental: HBEC-5i cells were cultured as a monolayer (3) on T-flasks in DMEM:F12 supplemented with 10% (v/v) FBS, 1% (v/v) Pen-Strep and 1% (v/v) ECGS. Cells were grown in a humidified atmosphere of 5% CO2 at 37 °C (MCO-18AIC (UV), Sanyo, Japan) with the medium changed every other day. Cells were allowed to grow until confluence in a culture T-flask, then carefully harvested with trypsin-EDTA and seeded (8000 cells/well) into tissue culture 24-well inserts (4) (transparent polyester membrane with 1.0 µm pores) (BD Falcon, USA) pre-coated with attachment factor protein solution. The medium was changed every other day for 5-8 days, afterwards cells were washed with 1 × PBS followed by DMEM:F12 medium without phenol red. Next, the conjugates were diluted in DMEM:F12 without phenol red, until reaching a final 10 µM concentration, and were added to the apical side (1) of the in vitro BBB model.
(§3) Conjugate translocation was determined by fluorescence intensity (λex= 410 nm, λem = 625 nm for MP conjugates; λex=410 nm, λem=635 nm for PP conjugates). […] After 24 h incubation, samples from the basolateral side (2) were collected and analyzed. Fluorescence was measured in a Varioskan Lux plate reader (Thermo Scientific). PPC translocation (%) was calculated as follows: PPC translocation(%) = (F_i−Fcells)/(F_PPC−F_Medium) × 100 [formula] where Fi is the fluorescence intensity of the sample collected at the basolateral side (2), Fcells is the intrinsic fluorescence intensity of cells without incubation with a peptide-protein conjugate PPC, FPPC is the intensity of total PPC initially added to the transwell apical side (1), and FMedium is the intensity of DMEM:F12 medium without phenol red.

JEG-3 cells [3] = conditions: 10 µM on apical side, 24 h incubation; percentage of compound in the basolateral side
Experimental: as §3
JEG-3 cells were cultured as a monolayer on T-flasks in EMEM supplemented with 10% (v/v) FBS and 1% (v/v) Pen-Strep. Cells were grown in a humidified atmosphere of 5% CO2 at 37 °C with the medium changed every other day. Cells were allowed to grow until confluence in a culture T-flask, then carefully harvested with trypsin-EDTA and seeded (3000 cells/well) onto rat-tail collagen-coated tissue culture 24-well inserts (4). A cellular monolayer (3) with low permeability was formed 5 days after the incubation on the tissue culture insert (4). BPB translocation and integrity measurement methods are identical to those for the BBB in vitro model defined above.

JEG-3 cells [4] = conditions: FD4 content in basolateral side after 24 h incubation with compound, then 2 h FD4; untreated BPB 1.23%
Experimental: (§4) After 24 h incubation with conjugates in the set-up shown in Figure 1, an in vitro integrity assay was performed. HBEC-5i (for BBB) or JEG-3 (for BPB) cells were washed twice with PBS and once with a medium without phenol red. DMEM:F12 medium was used with HBEC-5i cells and EMEM medium was used with JEG-3 cells. Then, previously diluted 4 kDa fluorescein isothiocyanate-dextran (FD4) (Sigma-Aldrich, Spain) in the medium indicated above for each cell line and without phenol red to an absorbance of 0.1 was added to the apical side (1) and incubated for 2 h. Samples were collected at the basolateral side (2), and fluorescence intensity was measured at λex=493 nm and λem=520 nm using a Varioskan Lux plate reader. Barrier integrity was evaluated from FD4 permeability as follows: FD4 Permeability(%) = (Fi −Fcells)/(FFD4 −FMedium) × 100 [formula] where Fi is the fluorescence intensity of the sample at the basolateral side (2), Fcells is the intrinsic fluorescence intensity of cells without FD4 incubation, FFD4 is the intensity of FD4 stock initially added to the apical side (1), and FMedium is the intensity of the medium indicated above for each cell line and without phenol red.
JEG-3 cells were cultured as a monolayer on T-flasks in EMEM supplemented with 10% (v/v) FBS and 1% (v/v) Pen-Strep. Cells were grown in a humidified atmosphere of 5% CO2 at 37 °C with the medium changed every other day. Cells were allowed to grow until confluence in a culture T-flask, then carefully harvested with trypsin-EDTA and seeded (3000 cells/well) onto rat-tail collagen-coated tissue culture 24-well inserts (4). A cellular monolayer (3) with low permeability was formed 5 days after the incubation on the tissue culture insert (4).

[5] = Serum stability in human serum; assay type: in vitro ADME; conditions: for half-life at 0.05 mM: human serum (1:1 v/v with HEPES buffer), pH 7.8, 37 °C, read-out: Serum half-life time (converted)
Experimental: Next, 600 µL of the solution comprising the conjugate or peptide were mixed (1:1 v/v) with 600 µL of human serum, to reach a final concentration of 0.05 mM. The mixture was incubated at 37 °C and, at various time points, 50 µL (in triplicate) were taken and precipitated with 200 µL cold methanol. The samples were centrifuged at 13000 rpm, 10 min, +4 °C. Afterwards, 50 µL of each supernatant were injected on an LC-20AD instrument (Shimadzu) equipped with a Luna C18 column (4.6 mm × 50 mm, 3 µm, Phenomenex, USA) and analyzed using a 0%-95% linear gradient of MeCN into 0.1% TFA in H2O over 15 min with 1 mL/min flow rate. PDA detection at 220 nm and 401 nm was used and the half-life times were calculated by peak area integration at 401 nm, the λmax of MP and PP. Controls included blank serum (25 µL each of 1:1 v/v serum + HEPES buffer, then precipitation with 200 µL cold methanol), untreated conjugate/peptide (25 µL of 0.1 mM stock in HEPES buffer + 25 µL HEPES buffer, then precipitation with 200 µL cold methanol), and a zero-time sample (200 µL cold methanol + 25 µL serum + 25 µL 0.1 mM conjugate/peptide stock), the conjugate/peptide added last to avoid any contact with protease. Controls were analyzed by LC and LC-MS as described above.

HBEC-5i cells [6] = conditions: FD4 content in basolateral side after 24 h incubation with compound, then 2 h FD4; untreated BBB 10.3%
Experimental: as §4

HBEC-5i cells [7] = conditions: concentrations of up to 50 µM, 24 h
Experimental: as §2

ZIKV = conditions: read-out: IC50 value for inactivation of ZIKV, cited from earlier work
ZIKV^BR [8] = conditions: virus pre-treated 1 h at 37 °C, in the dark, 0.01-50 µM
Experimental: ZIKV^BR was propagated in C6/36 cells using a multiplicity of infection (MOI) of 0.01. After infection, cells were cultured for 7 days. The culture medium collected from the infected cultures was centrifuged at 700 g to remove cellular debris, stored in aliquots at -80 °C and titrated by plaque assay.
To determine the effect of conjugates on ZIKV^BR as prepared above, 10^5 plaque forming units (PFU) were pre-treated with different concentrations of conjugates in the 0.01-50 µM range for 1 h at 37 °C, in the dark. After treatment, viral samples were serially diluted (10-fold) for titration by plaque assay. Samples were incubated for 1 h at 37 °C and 5% CO2 with Vero cells. After infection, the medium was removed and 1 mL DMEM containing 1% (v/v) FBS, 100 U/mL penicillin, 100 µg/mL streptomycin and 1.5% carboxymethylcellulose was added to each well. The plates were incubated at 37 °C and 5% CO2. After 5 days cells were fixed by 1 mL of 4% (v/v) formaldehyde in H2O for 30 min. Each plate was washed and stained with a 1% (v/v) crystal violet, 20% (v/v) ethanol solution. The number of plaques on each well was counted and corrected for well dilution to determine the pfu/mL number. The half-maximum inhibitory concentration (IC50) was determined by non-linear regression with sigmoidal profile and variable slope using the software Graphpad Prism (version 6.0), only on treatments that achieved total inhibition.

ZIKV^BR [9] = test: ZIKV inactivation assay (plaque assay on Vero cells); assay type: cell-based, Zika virus; conditions: virus pre-treated 1 h at 37 °C, in the dark, 0.01-50 µM
HBEC-5i cells [10] = test system: HBEC-5i cells
Experimental: as §4

JEG-3 cells [11] = test: in vitro BPB integrity assay (FD4 permeability) after translocation assay; assay type: cell-based
JEG-3 cells [12] = assay type: in vitro ADME; conditions: human, 24 h, 10 µM
Experimental: (§1) PPC translocation (%) was calculated as follows: […]

HBEC-5i cells [13] = assay type: in vitro ADME; conditions: human, 24 h, 10 µM
Experimental: as §1

| Compound | altered cell viability (JEG-3 cells [1]) | BBB translocation (%) (HBEC-5i cells [2]) | BPB translocation (%) (JEG-3 cells [3]) | BPB FD4 (%) (JEG-3 cells [4]) | half-life at 0.05 mM [5] | BBB FD4 (%) (HBEC-5i cells [6]) | altered cell viability (HBEC-5i cells [7]) | IC50 (ZIKV^BR [8]) | further results |
| --- | --- | --- | --- | --- | --- | --- | --- | --- | --- |
| C=CC1=C(C)c2cc3[nH]c(cc4nc(cc5[nH]c(cc1n2)c(C)c5CCC(=O)N[C@H](C(=O)N[C@@H](CCC(N)=O)C(=O)N[C@@H](CCC(N)=O)C(=O)N[C@@H](CC(C)C)C(=O)N[C@H](C(=O)N[C@@H](CCCCN)C(=O)N[C@@H](CCCNC(=N)N)C(=O)N[C@@H](Cc1ccccc1)C(=O)N[C@@H](CO)C(=O)N[C@@H](CC(C)C)C(N)=O)[C@@H](C)O)C(C)C)C(CCC(=O)O)=C4C)c(C)c3C=C [(I)] (X1-VQQLTKRFSL-NH2) | none | 43.6% | 21.2% | 0.83% | 1330 min | 13.6% | none | – | – |
| C=Cc1c(C)c2cc3[nH]c(cc4nc(cc5nc(cc1[nH]2)C(C)=C5CCC(=O)[O-])C(CCC(=O)[O-])=C4C)c(C)c3C=C.[Co+2] [CoPPIX] | – | – | – | – | – | – | – | – | IC50 (ZIKV; with light activation): 5.79 µM; IC50 (ZIKV; without light activation): 2.49 µM |
| CCC1=C(C)c2cc3[nH]c(cc4nc(cc5[nH]c(cc1n2)c(C)c5CCC(=O)O)C(CCC(=O)NCCCC[C@H](NC(=O)[C@H](CC(C)C)NC(=O)[C@H](CO)NC(=O)[C@H](Cc1ccccc1)NC(=O)[C@H](CCCNC(=N)N)NC(=O)[C@H](CCCCN)NC(=O)[C@@H](NC(=O)[C@H](CC(C)C)NC(=O)[C@H](CCC(N)=O)NC(=O)[C@H](CCC(N)=O)NC(=O)[C@@H](N)C(C)C)[C@@H](C)O)C(N)=O)=C4C)c(C)c3CC [Compound P2-MP] (H-VQQLTKRFSLK(X2)-NH2) | none | 25.5% | 6.9% | 1.30% | 642 min | 14.5% | none | > 50 µM | – |
| C=CC1=C(C)c2cc3[nH]c(cc4nc(cc5[nH]c(cc1n2)c(C)c5CCC(=O)NCCCC[C@H](NC(=O)[C@H](CC(C)C)NC(=O)[C@H](CO)NC(=O)[C@H](Cc1ccccc1)NC(=O)[C@H](CCCNC(=N)N)NC(=O)[C@H](CCCCN)NC(=O)[C@@H](NC(=O)[C@H](CC(C)C)NC(=O)[C@H](CCC(N)=O)NC(=O)[C@H](CCC(N)=O)NC(=O)[C@@H](N)C(C)C)[C@@H](C)O)C(N)=O)C(CCC(=O)O)=C4C)c(C)c3C=C [Compound P2-PP] (H-VQQLTKRFSLK(X1)-NH2) | none | 35.1% | 7.9% | 0.90% | 216 min | 13.7% | none | > 50 µM | – |
| CCC1=C(C)c2cc3[nH]c(cc4nc(cc5[nH]c(cc1n2)c(C)c5CCC(=O)O)C(CCC(=O)NCCCC[C@H](NC(=O)[C@H](Cc1ccc(O)cc1)NC(=O)[C@H](CCC(=O)O)NC(=O)[C@H](CCC(=O)O)NC(=O)[C@H](CCC(N)=O)NC(=O)[C@@H](NC(=O)CNC(=O)[C@@H](N)CO)[C@@H](C)O)C(N)=O)=C4C)c(C)c3CC [Compound P4-MP] (H-SGTQEEYK(X2)-NH2) | none | 45.8% | 13% | 1.1% | 180 min | 15.6% | none | > 50 µM | – |
| C=CC1=C(C)c2cc3[nH]c(cc4nc(cc5[nH]c(cc1n2)c(C)c5CCC(=O)O)C(CCC(=O)NCCCC[C@H](NC(=O)[C@H](Cc1ccc(O)cc1)NC(=O)[C@H](CCC(=O)O)NC(=O)[C@H](CCC(=O)O)NC(=O)[C@H](CCC(N)=O)NC(=O)[C@@H](NC(=O)CNC(=O)[C@@H](N)CO)[C@@H](C)O)C(N)=O)=C4C)c(C)c3C=C [Compound P4-PP] (H-SGTQEEYK(X3)-NH2) | none | 42.8% | 15.6% | 1.2% | 198 min | 10.6% | none | > 50 µM | – |
| CCC1=C(C)c2cc3[nH]c(cc4[nH]c(cc5nc(cc1n2)C(C)=C5CC)c(C)c4CCC(=O)O)c(CCC(=O)O)c3C [MP, mesoporphyrin IX] | – | – | – | – | – | – | – | – | IC50 (ZIKV^BR [9]): > 50 µM; BBB FD4 (%) (HBEC-5i cells [10]): 17.9%; BPB FD4 (%) (JEG-3 cells [11]): 1.68% |
| CCC1=C(C)c2cc3[nH]c(cc4nc(cc5[nH]c(cc1n2)c(C)c5CCC(=O)N[C@H](C(=O)N[C@@H](CCC(N)=O)C(=O)N[C@@H](CCC(N)=O)C(=O)N[C@@H](CC(C)C)C(=O)N[C@H](C(=O)N[C@@H](CCCCN)C(=O)N[C@@H](CCCNC(=N)N)C(=O)N[C@@H](Cc1ccccc1)C(=O)N[C@@H](CO)C(=O)N[C@@H](CC(C)C)C(N)=O)[C@@H](C)O)C(C)C)C(CCC(=O)O)=C4C)c(C)c3CC [MP-P1] (X4-VQQLTKRFSL-NH2) | none | 30% | 6.9% | 1.16% | 972 min | 19.9% | none | > 50 µM | – |
| CCC1=C(C)c2cc3[nH]c(cc4nc(cc5[nH]c(cc1n2)c(C)c5CCC(=O)N[C@@H](CO)C(=O)NCC(=O)N[C@H](C(=O)N[C@@H](CCC(N)=O)C(=O)N[C@@H](CCC(=O)O)C(=O)N[C@@H](CCC(=O)O)C(=O)N[C@@H](Cc1ccc(O)cc1)C(N)=O)[C@@H](C)O)C(CCC(=O)O)=C4C)c(C)c3CC [MP-P3] (X4-SGTQEEY-NH2) | none | 46.6% | 14.2% | 1.17% | 1270 min | 14.6% | none | 25.1 µM | – |
| C=CC1=C(C)c2cc3[nH]c(cc4nc(cc5[nH]c(cc1n2)c(C)c5CCC(=O)O)C(CCC(=O)O)=C4C)c(C)c3C=C [PP, protoporphyrin IX] | – | – | – | – | – | – | – | – | IC50 (ZIKV^BR [9]; Zika virus, Vero): > 50 µM; BPB translocation (%) (JEG-3 cells [12]): 14.2%; BBB translocation (%) (HBEC-5i cells [13]): 47.8%; BBB FD4 (%) (HBEC-5i cells [10]; human, 2 h, 10 µM): 24.7%; BPB FD4 (%) (JEG-3 cells [11]; human, 2 h, 10 µM): 0.87% |
| C=CC1=C(C)c2cc3[nH]c(cc4nc(cc5[nH]c(cc1n2)c(C)c5CCC(=O)O)C(CCC(=O)N[C@@H](CO)C(=O)NCC(=O)N[C@H](C(=O)N[C@@H](CCC(N)=O)C(=O)N[C@@H](CCC(=O)O)C(=O)N[C@@H](CCC(=O)O)C(=O)N[C@@H](Cc1ccc(O)cc1)C(N)=O)[C@@H](C)O)=C4C)c(C)c3C=C [PP-P3] (X3-SGTQEEY-NH2) | none | 43.2% | 18.9% | 1.79% | 222 min | 9.6% | none | > 50 µM | – |
| VQQLTKRFSL-NH2 [Peptide having SEQ ID NO1, reference compound] | – | – | – | – | – | – | – | – | Serum half-life time ([5]; 0.05 mM, 37 °C): 43.8 min |
